Results: paper PMC7006816, “Human β-Defensin 2 Mediated Immune Modulation as Treatment for Experimental Colitis” (Frontiers in Immunology, 2020)
Where no end group is shown, it is not given here.

Key:
[1] = system: human primary PBMC's; test: Stimulation of PBMCs of healthy volunteers with TLR ligands, cytokine release; type: cell-based; conditions: hBD2 100, 40, 10 or 1 μg/ml, 24 h, cytometric bead array
Description: Heparinized blood was diluted 1/1 v/v with RPMI (Gibco) and was subjected to Ficoll-Paque Plus (GE healthcare) density centrifugation within 2 h of drawing. Plasma was collected from the top from individual donors and was kept on ice until it was used at 2% in the culture medium (autologous culture medium). Isolated PBMC's were re-suspended in autologous culture medium and seeded in 96-well culture plates with 115.500 cells per well (Figure 1) or 200.000 cells per well (Figure 2) in a total of 200 μl. […] The supernatants were collected after incubation at 37°C for 24 h, and stored at −80°C until cytokine measurement.
The experiment in Figure 1 was performed with healthy volunteers, which were recruited under an approval from the Ethical Committee for Region Capital, Denmark. Interleukin 1β (IL-1β) and tumor necrosis factor alpha (TNF-α) (Figure 1) were quantified in supernatants by flow cytometry using a human inflammation cytometric bead array (CBA) according to manufacturer's instructions (BD) using a FACSarray flow cytometer. IL-1β, TNF- α, Interferon gamma (INF-y), Interleukin 12p70 (IL-12), and Interleukin 23 (IL-23) were analyzed using a human inflammation cytometric bead array (LegendPlex Biolegends) according to manufacturer's instructions.

[2] = system: NMRI mice; test: In vivo toxicity test, single s.c. dose; set-up: species or system mouse; conditions: for Clinical signs at the end of the day of dosing / Clinical signs on the day of dosing: Clinical signs / Clinical signs on the day of dosing: No clinical signs / Clinical signs on the day of dosing: Pruritus / Necropsy: Macroscopic findings: female NMRI mice; for Clinical signs at the end of the day of dosing / Clinical signs on the day of dosing: Clinical signs / Clinical signs on the day of dosing: No clinical signs / Clinical signs on the day of dosing: Pruritus: animals/group; for Necropsy: Macroscopic findings: necropsy day 4, animals/group
Description: In vivo toxicity of hBD2 was assessed in 6–8 weeks old female NMRI mice (Taconic Europe). All animal studies were performed according to Danish legislations for laboratory animals and approved by Novozymes science ethics committee. hBD2 was given subcutaneously (s.c.) in the intrascapular region using a 25G needle and a 1 ml syringe. […] Clinical signs were recorded on day 0 and monitored until experimental endpoints. Body weights were recorded as a minimum on day 0, day 2, and day 4 prior to euthanasia. Necropsy was performed after euthanasia and kidneys, spleens and livers were weighed.

[3] = system: SCID mice with CD4+/CD25− T cell transfer colitis; test: T cell transfer colitis model; type: in vivo, mouse
Description: This study was performed by the Department of Biomedical Science at the University of Catania according to directive 86/609 EEC and approved by Novozymes science ethics committee. 8 weeks old female BALB/c and C.B-17 female SCID mice were purchased from Harlan (Italy). Colitis was induced in severe combined immunodeficiency (SCID) mice by transplantation of CD4^+/CD25^− T cells from the BALB/c mice. Briefly, lymphomonocytes isolated from spleen or lymph nodes from BALB/c mice were subjected to negative selection of CD4^+ T cells. Afterwards, CD4^+/CD25^+ cells were positively isolated by binding to the beads from the CD4^+ T cell suspensions and the CD4^+/CD25^− were collected from supernatant. […] CD4^+/CD25^− cells were intraperitoneally injected to SCID mice at a concentration of 500,000 cells in a final volume of 0.2 ml RPMI 1640. Sham treated animals (n = 6) received 0.2 ml pure RPMI 1640. Diseased mice were randomized divided into 4 groups (n = 11) and treated once daily by s.c. application of PBS (vehicle), hBD2 (0.1 and 1 mg/kg, respectively) or 0.3 mg/kg Dexamethasone (Dexa., applied intraperitoneally). Treatments started 7 days post T cell transfer and continued daily for 86 days. Animals were weighed three times a week and monitored twice a week starting from day 42 for the clinical status, summarized as DAI. The DAI included body weight loss, stool consistency, and the presence of blood at the rectum. One animal in the vehicle and one in the Dexamethasone treated groups had to be sacrificed before the end of the study. At the end of the study, animals were sacrificed and the colon was removed and carefully cleaned for further analysis. First, the colon was weighed then a section from the middle was removed and fixed for pathologic survey. The rest of the colon (5 cm) was used to quantify the activity of myeloperoxidase in the tissue.
Myeloperoxidase activity was performed on 5 cm of colon previously frozen at −80°C. Colon was homogenized in 0.5% of HETAB dissolved in 10 mM of Phosphate-Citrate Buffer (pH 7.0) to enable the release of MPO enzyme from the neutrophil granules. Homogenated samples after three freeze-thaw cycles were spun at 3,000 × g at 4°C for 30 min. Pellets were resuspended in 0.5% HETAB in 10 mM Phosphate-Citrate Buffer and spun again at 3,000 × g at 4°C for 30 min. 500 ul of supernatant were delivered into a vial along with 500 ul of TMB in Phosphate-Citrate Buffer containing Perborate Sodium. Changes in absorbance at 620 and 450 nm were read by a spectrophotometer (IRIS). Peroxidase enzyme diluted in 0.5% HETAB in 10 mM Phosphate-Citrate Buffer and H2O was used as standard. Two-fold dilutions of standard were prepared at the highest concentration of 50 pg/ml. Reagents and samples were kept refrigerated. Substrate solution was prepared just before the assay. MPO activity expresses the amount of enzyme that is able to degrade […] of peroxide/min and it is expressed as U/g tissue weight.
Sections of the colon were taken from each animal and preserved in neutral buffered formaline for subsequent histological analysis. Sections were stained using haematoxylin and eosin for further scoring.

[4] = hBD2 1 mg/kg s.c. daily, n = 11

Q: For “human β-defensin 2 (GIGDPVTCLKSGAICHPVFCPRRYKQIGTCGLPGTKCCKKP; not fully specified; ends and bridges not checked) [hBD2, Recombinant human β-defensin 2 expressed in E. coli as his-tagged thioredoxin fusion, cleaved and purified, natural tertiary structure]”, which “Release of IL-1β” value ([1]; LPS 20 pg/ml, n = 150–194) is on record?
A: The value was “consistently mitigated release of both cytokines”.

Q: What about the “Release of TNF-α” value ([1]; LPS 20 pg/ml, n = 150–194) of the same substance?
A: Its value is “consistently mitigated release of both cytokines”.

Q: What about the “Release of IL-1β” value ([1]; Pam3CSK4 0.3 μg/ml) of the same substance?
A: The value was “significantly reduced”.

Q: What about the “Release of TNF-α” value ([1]; Pam3CSK4 0.3 μg/ml) of the same substance?
A: The value was “significantly reduced”.

Q: What about the “Clinical signs after systemic challenge” value ([2]; 0.5 mg/kg s.c.) of the same substance?
A: The value was “did not develop any clinical signs”.

Q: What about the “Clinical signs at the end of the day of dosing” value (“Clinical signs at the end” for short) ([2]; 0.5 mg/kg s.c.) of the same substance?
A: The value was 0/3.

Q: And the “Clinical signs on the day of dosing: Clinical signs” value ([2]; 0.5 mg/kg s.c.)?
A: The value was 0/3.

Q: What about the “Clinical signs on the day of dosing: No clinical signs” value (“Clinical signs … No clinical signs” below) ([2]; 0.5 mg/kg s.c.) of the same substance?
A: The value was 3/3.

Q: And the “Clinical signs on the day of dosing: Pruritus” value (from here on “Clinical signs … Pruritus”) ([2]; 0.5 mg/kg s.c.)?
A: The value was 0/3.

Q: What about the “Necropsy: Macroscopic findings” value ([2]; 0.5 mg/kg s.c.) of the same substance?
A: The value was 0/3.

Q: And the “Clinical signs at the end” value ([2]; 10 mg/kg s.c.)?
A: Its value is 0/3.

Q: What about the “Clinical signs on the day of dosing: Clinical signs” value ([2]; 10 mg/kg s.c.) of the same substance?
A: Its value is 3/3.

Q: And the “Clinical signs … No clinical signs” value ([2]; 10 mg/kg s.c.)?
A: Its value is 0/3.

Q: What about the “Clinical signs … Pruritus” value ([2]; 10 mg/kg s.c.) of the same substance?
A: The value was 3/3.

Q: What about the “Necropsy: Macroscopic findings” value ([2]; 10 mg/kg s.c.) of the same substance?
A: Its value is 0/3.

Q: What about the “Clinical signs at 60 min post dosing” value ([2]; 40 mg/kg s.c.) of the same substance?
A: Its value is “still affected at 60 min post dosing”.

Q: What about the “Clinical signs at the end” value ([2]; 40 mg/kg s.c.) of the same substance?
A: Its value is 0/3.

Q: And the “Clinical signs … No clinical signs” value ([2]; 40 mg/kg s.c.)?
A: The value was 0/3.

Q: And the “Clinical signs … Pruritus” value ([2]; 40 mg/kg s.c.)?
A: Its value is 3/3.

Q: What about the “Necropsy: Macroscopic findings” value ([2]; 40 mg/kg s.c.) of the same substance?
A: The value was 0/3.

Q: What about the Body weight gain ([2]; 0.5, 10, 40 mg/kg s.c., day 0-4) of the same substance?
A: The Body weight gain was “did not show any weight loss”.

Q: What about the “Adverse effects at necropsy” value ([2]; 0.5, 10, 40 mg/kg s.c., necropsy day 4) of the same substance?
A: The value was “no adverse effects were observed at necropsy”.

Q: What about the “Organ weight (liver, spleen, kidneys)” value ([2]; 0.5, 10, 40 mg/kg s.c., necropsy day 4, hBD2 mice n = 3, control n = 2) of the same substance?
A: Its value is “nor did the organ weight differ significantly between the groups”.

Q: What about the “Clinical signs shortly after challenge” value ([2]; 10 or 40 mg/kg s.c., 10–15 min after challenge, transient) of the same substance?
A: The value was “mild clinical signs”.

Q: And the “Outcome of T cell mediated colitis” value ([3]; hBD2 0.1 mg/kg s.c. daily, n = 11)?
A: Its value is “did not improve the outcome of T cell mediated colitis”.

Q: What about the “Histological analysis of colon” value ([3]; hBD2 1 mg/kg s.c. daily) of the same substance?
A: Its value is “less signs of inflammation and tissue disruption”.

Q: And the Weight change ([3]; hBD2 1 mg/kg s.c. daily from day 7 after transfer, n = 11)?
A: The Weight change was “less weight loss”.

Q: And the Colon weight ([3]; hBD2 1 mg/kg s.c. daily, end of experiment, n = 11)?
A: The Colon weight was “significantly reduced the colon weight”.

Q: And the DAI [3, 4]?
A: The DAI was “improved DAI”.

Q: What about the Stool score [3, 4] of the same substance?
A: Its Stool score is “Same trait was observed for the stool score”.

Q: And the Colonic myeloperoxidase activity ([3]; hBD2 s.c. daily (0.1 or 1 mg/kg), end of experiment)?
A: The Colonic myeloperoxidase activity was “Only a minor effect”.
